Reference: patent US20230056815A1 (VIELA BIO, published 2023)

Legend:
[1] = molecular target: T1, human soluble FLT3L (recombinant huFLT3L) (human, UniProt P49771 27-184); assay: cell-based or functional assay
T1 sequence (looked up): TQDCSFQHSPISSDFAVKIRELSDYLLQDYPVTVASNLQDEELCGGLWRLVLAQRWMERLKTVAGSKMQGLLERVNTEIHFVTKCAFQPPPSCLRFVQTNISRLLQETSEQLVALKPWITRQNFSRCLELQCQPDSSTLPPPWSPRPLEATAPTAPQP

[2] = molecular target: cynomolgus monkey soluble FLT3L (cynomolgus monkey); assay: cell-based or functional assay
[3] = molecular target: T1, human soluble FLT3L (recombinant …); assay: cell-based or functional assay; remark: listed apart in the source
[4] = molecular target: T2, recombinant human stem cell factor (SCF) (human, UniProt P21583 26-189); assay: ELISA on coated recombinant human SCF
T2 construct: also called huSCF; KIT-ligand
T2 sequence (P21583 26-189 limits assumed): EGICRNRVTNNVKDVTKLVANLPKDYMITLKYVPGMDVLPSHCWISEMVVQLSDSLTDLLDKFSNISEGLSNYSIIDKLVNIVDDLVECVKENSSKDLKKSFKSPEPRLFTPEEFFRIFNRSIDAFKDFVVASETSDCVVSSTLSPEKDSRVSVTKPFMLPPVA
Procedure: (§1) To test this, an ELISA plate was coated with 2 µg of recombinant human SCF or CSF1. After washing, the plate was blocked with 3% milk in Tris-Phosphate Buffered Saline (TPBS) and lead antibodies were added in serial (×2) dilution, starting at 50 µg/ml. After incubation, unbound antibody was removed by washing and bound antibody was detected using anti-human IgG-HRP in combination with TMB substrate for color development. Commercially available goat anti-SCF pAb and mouse anti-CSF1 mAb were used as positive binding controls.

[5] = molecular target: T3, recombinant human colony stimulating factor 1 (CSF1) (human, UniProt P09603 33-190, limits assumed); assay: ELISA on coated recombinant human CSF1
T3 construct: also called huCSF1; huCSF
T3 sequence (looked up): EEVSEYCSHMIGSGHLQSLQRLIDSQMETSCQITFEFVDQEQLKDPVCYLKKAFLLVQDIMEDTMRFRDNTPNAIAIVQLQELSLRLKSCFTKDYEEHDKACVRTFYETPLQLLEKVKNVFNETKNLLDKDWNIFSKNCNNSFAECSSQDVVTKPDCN
Procedure: as §1

[6] = molecular target: T4, cynomolgus monkey FLT3L on CHO cells (cynomolgus monkey); assay: flow cytometry on CHO cells expressing full-length cyno FLT3L, PE anti-hu IgG
T4 construct: whole, on cells; also called cell surface cyno FLT3L
Procedure: (§2) Consistent with this, cell surface binding to human, cyno, and mouse FLT3L was evaluated by transfecting Chinese hamster ovary (CHO) cells with the respective full-length protein for each species. Candidate clones were incubated with FLT3L-expressing cell lines for 1 hour at 4° C. before being washed twice to remove unbound antibody. Cells were then incubated with PE-labeled goat anti-hu IgG secondary detection pAb to quantitate bound antibody which was measured by flow cytometric analysis of PE signal. The huFLT3-Fc construct, on a hu IgG backbone, was used as a positive control reagent for FLT3L expression as it cross reacts with cyno and mouse, in addition to human ligand.
(§3) As differences were apparent in the degree of receptor occupancy for each clone, both EC50 and max occupancy were noted (expressed as percent relative to FLT3-Fc) and taken into account in the final evaluation. Results are shown in Table 4 for human, cyno, and mouse FLT3L expressed in CHO cells.

mouse FLT3L on CHO cells = molecular target: T5, mouse FLT3L on CHO cells (mouse, UniProt P49772 27-232); assay: flow cytometry on CHO cells expressing mouse FLT3L, anti-hu IgG-PE detection
T5 construct: whole, on cells; also called cell surface mouse FLT3L
T5 sequence (looked up): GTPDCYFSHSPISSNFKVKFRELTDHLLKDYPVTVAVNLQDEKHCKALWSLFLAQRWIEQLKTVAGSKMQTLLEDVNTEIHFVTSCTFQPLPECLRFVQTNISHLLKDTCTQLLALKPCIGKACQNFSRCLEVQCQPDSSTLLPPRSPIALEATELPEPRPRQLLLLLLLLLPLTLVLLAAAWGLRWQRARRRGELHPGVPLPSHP
Procedure: as §2

mouse soluble FLT3L = molecular target: T6, mouse soluble FLT3L (mouse, UniProt P49772 27-189); assay: inhibition of FLT3 downregulation on RS4;11 cells by soluble mouse FLT3L (N/A in Table 3)
T6 construct: extracellular domain; also called mouse sFLT3L; muFLT3L
T6 sequence (looked up): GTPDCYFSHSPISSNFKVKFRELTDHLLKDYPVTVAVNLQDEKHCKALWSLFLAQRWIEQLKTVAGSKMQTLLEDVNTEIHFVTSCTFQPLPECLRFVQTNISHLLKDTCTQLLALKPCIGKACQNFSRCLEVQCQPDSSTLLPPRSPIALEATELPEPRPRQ
Procedure: Screening assay conditions were further refined to determine ideal cell culture conditions for evaluating anti-FLT3L candidate clones. Final conditions were: 50,000 RS4;11 cells per well incubated with 96 pM rhuFLT3L with or without anti-FLT3L mAb candidate clones in complete Roswell Park Memorial Institute (RPMI) media with one percent bovine serum albumin (BSA) for 2 hours in an humidified incubator set at 37° C., 5% CO2. Subsequent downregulation of FLT3 expression was determined by flow cytometry as measured either as raw MFI or % downregulation. […] (FIG. 3A). Assay efficacy was confirmed using a commercially available mouse anti-huFLT3L antibody control (MAB608, R&D Systems) (FIG. 3B). Due to the cross-species reactivity of FLT3 with its ligand, this assay was effective for testing clones against human, cyno, and rodent FLT3L, despite being a human cell line. For mouse FLT3L, the EC80 was 36 pM.
Upon ligation of FLT3L to FLT3, the receptor dimerizes, autophosphorylates, and propagates a signaling cascade once internalized. This process, measured by FLT3 downregulation, can be inhibited by antibodies that bind FLT3L. Thus, lead candidates were tested for their ability to inhibit FLT3 downregulation on RS4;11 cells by binding human, mouse, or cynomolgus monkey (cyno) soluble FLT3L (sFLT3L). […] FLT3 expression on RS4;11 cells was determined using flow cytometry and reported as MFI.

[7] = molecular target: T7, human FLT3L on the cell surface (human, UniProt P49771 27-235); assay: flow cytometry on CHO cells expressing full-length human FLT3L, PE anti-hu IgG; CHO cells transfected with full-length human FLT3L, PE anti-hu IgG
T7 construct: whole, on cells; The assay field of each row says which cells carried it; also called cell-surface FLT3L; huFLT3L-expressing CHO cells
T7 sequence (looked up): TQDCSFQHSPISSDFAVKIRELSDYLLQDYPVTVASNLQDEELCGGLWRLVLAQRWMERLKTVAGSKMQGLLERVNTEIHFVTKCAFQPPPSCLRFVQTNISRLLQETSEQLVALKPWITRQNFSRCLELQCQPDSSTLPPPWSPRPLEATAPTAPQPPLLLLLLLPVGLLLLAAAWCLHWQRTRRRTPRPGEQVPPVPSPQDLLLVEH
Procedure: as §2, §3

[8] = molecular target: T7, human FLT3L on the cell surface; assay: flow cytometry on CHO cells expressing full-length human FLT3L, PE anti-hu IgG; CHO cells transfected with full-length human FLT3L; maximum occupancy relative to FLT3-Fc
Procedure: as §2, §3

IC50 (nM), inhibition of FLT3 downregulation on RS4;11 cells [1]: 385 nM
IC50 (nM), inhibition of FLT3 downregulation on RS4;11 cells [2]: 564 nM
IC50 (nM) against 0.476 nM FLT3L, ERK phosphorylation in CD133+ stem cells [3]: 187 nM
IC50 (nM) against 0.476 nM FLT3L, MEK phosphorylation in CD133+ stem cells [3]: 181 nM
binding result [4]: no binding (tested: about 0.3 uM)
binding result [5]: no binding (tested: about 0.3 uM)
EC50 [6]: 1.1 nM
maximum occupancy (% relative to FLT3-Fc) [6]: 100%
binding result (mouse soluble FLT3L): no binding
EC50 [7]: 0.157 nM
maximum occupancy (% relative to FLT3-Fc) [8]: 40%
B1: CAT5D9 antibody (IgG1 TM format) (antibody, V domains shown)
VH: QVQLVQSGAEVKKPGSSVKVSCKISGGTFSSYALSWVRQAPGQGLEWMGGIIPVFRTASYAQKFQGRVTITVDESASTGYIELSSLKSEDTATYYCASNNYVWGSYRFWGQGTTVTVSS
VL: NFMLTQPHSVSESPGKTVTISCTRTSGNIAGYFVQWYQQRPGSSPTTVIYEDYQRPSGVPDRFSGSIDRSSNSASLTISGLKPDDEADYYCQSYDDTSQGVFGAGTKVTVLG
notes: also called clone 5D9; parental 5D9
binding result (mouse FLT3L on CHO cells): no binding (tested: x = -7.2 (x axis without title or unit))
